The values that follow come from US20240383982A1 (Genmab, published 2024).

Experiment [1] has as its target T1, mouse B7H4 ECD-His (R&D Systems, cat. no. 2154-B7-050) (mouse, UniProt Q7TSP5 29-256).
T1 construct: Bought ECD-His protein (26.6 kDa); also called mouse B7H4 extracellular domain
T1 sequence: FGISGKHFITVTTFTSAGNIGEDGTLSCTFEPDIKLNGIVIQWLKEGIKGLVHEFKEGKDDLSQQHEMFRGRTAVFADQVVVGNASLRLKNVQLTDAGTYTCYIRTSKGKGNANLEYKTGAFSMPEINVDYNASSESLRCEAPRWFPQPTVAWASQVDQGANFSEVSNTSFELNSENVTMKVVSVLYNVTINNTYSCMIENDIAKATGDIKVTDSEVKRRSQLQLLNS
The experiment is described as follows: BLI (Octet HTX); antibody on anti-human IgG Fc capture sensor, mouse B7H4 ECD-His in solution; 1st experiment. As to the method:
(§1) Target binding affinity of B7H4 antibodies was determined by label-free biolayer interferometry (BLI) on an Octet HTX instrument (FortéBio). Experiments were carried out while shaking at 1,000 RPM at 30° C. […] Anti-Human IgG Fc Capture (AHC) biosensors (FortéBio, cat. no. 18-5060) were pre-conditioned by exposure to 10 mM glycine (Sigma-Aldrich, cat. no. 15527) buffer pH 1.7 for 5 s, followed by neutralization in Sample Diluent (FortéBio, cat. no. 18-1048) for 5 s; both steps were repeated 2 times. Next, AHC sensors were loaded with antibody (1 μg/mL in Sample diluent) for 600 s. […] The theoretical molecular mass of human B7H4 and mouse B7H4 (as ECD-His tagged molecules) based on their amino acid sequences (26.8 kDa and 26.6 kDa respectively) were used for calculations. For each antibody a reference sensor was used, which was incubated with Sample Diluent instead of antigen. AHC sensors were regenerated by exposure to 10 mM glycine buffer pH 1.7 for 5 s, followed by neutralization in Sample Diluent for 5 s; both steps were repeated twice. Subsequently sensors were loaded again with antibody for the next cycle of kinetics measurements.
(§2) Data were acquired using Data Acquisition Software v9.0.0.49d (FortéBio) and analyzed with Data Analysis Software v9.0.0.12 (FortéBio). Data traces were corrected per antibody by subtraction of the reference sensor. The Y-axis was aligned to the last 10 s of the baseline, Interstep Correction alignment to dissociation and Savitzky-Golay filtering were applied. Data traces with a response<0.05 nm were excluded from analysis. The data was fitted with the 1:1 Global Full fit model using a window of interest for the association and dissociation times set at 300 s and 200 s respectively.
For orientation: In BLI a coated tip is dipped into the sample, and binding shifts an interference pattern.

For experiment [2], the target named is T2, rat (Rattus norvegicus) B7H4, full length, on HEK-293F cells (rat, UniProt Q501W4 25-257).
T2 construct: Uniprot Q501W4; also called rat B7H4
T2 sequence: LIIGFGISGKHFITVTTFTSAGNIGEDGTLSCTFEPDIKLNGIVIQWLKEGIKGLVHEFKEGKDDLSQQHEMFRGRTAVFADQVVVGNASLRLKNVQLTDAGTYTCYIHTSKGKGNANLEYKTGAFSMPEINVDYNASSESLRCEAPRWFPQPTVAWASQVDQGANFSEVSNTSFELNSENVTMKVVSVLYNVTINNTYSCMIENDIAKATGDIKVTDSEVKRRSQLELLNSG
The experiment is described as follows: flow cytometry, HEK-293F cells transfected with rat B7H4 [panel Rat B7H4]. The method, then: (§3) Cells (3×10⁴ cells/well) were incubated in polystyrene 96-well round-bottom plates (Greiner bio-one, cat. no. 650180) with serial dilutions of antibodies (ranging from 0.000458 to 30 μg/mL in 4-fold dilution steps) in 100 μL PBS/0.1% BSA/0.02% azide (staining buffer) at 4° C. for 30 min. Experiments were performed in technical duplicate. After washing twice in staining buffer, cells were incubated in 50 μL secondary antibody at 4° C. for 30 min. As a secondary antibody, R-Phycoerythrin (PE)-conjugated goat-anti-human IgG F(ab′)₂ (1:500 in FACS buffer; Jackson ImmunoResearch Laboratories, Inc., West Grove, PA, cat. no. 109-116-098), was used. Cells were washed twice in staining buffer, re-suspended in 30 μL FACS buffer containing Topro-3 (1:10,000 dilution) and analyzed on an iQue Screener (Intellicyt Corporation, USA). Binding curves were analyzed using non-linear regression (sigmoidal dose-response with variable slope) using GraphPad Prism V7.02 software (GraphPad Software, San Diego, CA, USA).
(In general: In flow cytometry, cells or beads pass a laser one at a time.)

Experiment [3] deals with T1, mouse B7H4 ECD-His (R&D Systems, cat. …). The experiment is described as follows: BLI (Octet HTX); antibody on anti-human IgG Fc capture sensor, mouse B7H4 ECD-His in solution; 2nd experiment. The method, then:
as §1, §2

Experiment [4] concerns the target T3, pig (Sus scrofa) B7H4, full length, on HEK-293F cells (pig, UniProt Q7Z7D3 26-282 (human entry)).
T3 construct: Uniprot F1SAY4; also called pig B7H4
T3 chain: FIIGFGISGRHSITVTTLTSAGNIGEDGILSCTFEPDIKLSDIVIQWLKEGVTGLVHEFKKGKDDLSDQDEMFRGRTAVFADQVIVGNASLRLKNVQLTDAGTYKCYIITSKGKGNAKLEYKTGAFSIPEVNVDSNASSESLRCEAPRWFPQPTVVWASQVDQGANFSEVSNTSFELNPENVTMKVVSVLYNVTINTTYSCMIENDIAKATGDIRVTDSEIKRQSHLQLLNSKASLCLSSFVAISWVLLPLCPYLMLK
The experiment is described as follows: flow cytometry, HEK-293F cells transfected with pig B7H4 [panel Pig B7H4]. The method, then: as §3

Experiment [5] addresses T4, rabbit (Oryctolagus cuniculus) B7H4, full length, on HEK-293F cells (rabbit, UniProt Q7Z7D3 25-282 (human entry)).
T4 construct: Uniprot G1TQE8; also called rabbit B7H4
T4 chain: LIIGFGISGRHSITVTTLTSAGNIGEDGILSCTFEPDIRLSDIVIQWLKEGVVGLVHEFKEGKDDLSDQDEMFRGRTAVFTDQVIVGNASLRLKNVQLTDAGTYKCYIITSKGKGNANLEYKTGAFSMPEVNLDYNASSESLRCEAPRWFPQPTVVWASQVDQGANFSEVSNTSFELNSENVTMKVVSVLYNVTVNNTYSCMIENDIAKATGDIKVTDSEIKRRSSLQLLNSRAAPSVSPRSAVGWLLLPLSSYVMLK
The experiment in a line: flow cytometry, transiently transfected HEK-293F cells.

The target of experiment [6] is T5, B7H3-IgV/B7H4-IgC.
T5 construct: also called chimeric molecule with the IgV domain of B7H3 and the IgC domain of B7H4
T5 full-length chimeric protein on cells: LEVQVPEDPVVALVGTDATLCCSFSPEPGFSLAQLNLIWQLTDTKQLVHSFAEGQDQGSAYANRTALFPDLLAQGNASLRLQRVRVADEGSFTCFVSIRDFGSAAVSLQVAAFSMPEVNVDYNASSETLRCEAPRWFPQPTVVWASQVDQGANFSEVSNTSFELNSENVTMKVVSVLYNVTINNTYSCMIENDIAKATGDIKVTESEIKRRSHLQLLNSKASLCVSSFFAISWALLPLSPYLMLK
The experiment is described as follows: flow cytometry, transiently transfected HEK cells, antibody at 10 µg/mL, MFI as % of the control antibody of the panel. As to the method:
(§4) Expression constructs were prepared encoding human B7H4, human B7H3 (Uniprot accession no. Q5ZPR3-1; SEQ ID NO: 9), or a chimeric molecule containing the IgV domain of B7H3 and the IgC domain of B7H4 (B7H3-IgV/B7H4-IgC; SEQ ID NO: 11), or a chimeric molecule containing the IgV domain of B7H4 and the IgC domain of B7H3 (B7H4-IgV/B7H3-IgC; SEQ ID NO: 10). HEK cells were transiently transfected to express these constructs.
(§5) Cells (3×10⁴ cell/well) were incubated in polystyrene 96-well round-bottom plates (Greiner bio-one, cat. no. 650101) with serial dilutions of antibodies (range 0.0046 to 10 μg/mL in 3-fold dilution steps) in 50 μL PBS/0.1% BSA/0.02% azide (FACS buffer) at 4° C. for 30 min. After washing twice in FACS buffer, cells were incubated with secondary antibody at 4° C. for 30 min. As a secondary antibody, R-Phycoerythrin (PE)-conjugated goat-anti-human IgG F(ab′)₂ (1:500 in staining buffer; Jackson ImmunoResearch Laboratories, Inc., West Grove, PA, cat. no. 109-116-098) was used. Next, cells were washed twice in FACS buffer, re-suspended in 20 μL FACS buffer and analyzed on an iQue Screener (Intellicyt Corporation, USA).

Experiment [7] has as its target T6, B7H3.
T6 construct: also called human B7H3
T6 full-length protein on cells: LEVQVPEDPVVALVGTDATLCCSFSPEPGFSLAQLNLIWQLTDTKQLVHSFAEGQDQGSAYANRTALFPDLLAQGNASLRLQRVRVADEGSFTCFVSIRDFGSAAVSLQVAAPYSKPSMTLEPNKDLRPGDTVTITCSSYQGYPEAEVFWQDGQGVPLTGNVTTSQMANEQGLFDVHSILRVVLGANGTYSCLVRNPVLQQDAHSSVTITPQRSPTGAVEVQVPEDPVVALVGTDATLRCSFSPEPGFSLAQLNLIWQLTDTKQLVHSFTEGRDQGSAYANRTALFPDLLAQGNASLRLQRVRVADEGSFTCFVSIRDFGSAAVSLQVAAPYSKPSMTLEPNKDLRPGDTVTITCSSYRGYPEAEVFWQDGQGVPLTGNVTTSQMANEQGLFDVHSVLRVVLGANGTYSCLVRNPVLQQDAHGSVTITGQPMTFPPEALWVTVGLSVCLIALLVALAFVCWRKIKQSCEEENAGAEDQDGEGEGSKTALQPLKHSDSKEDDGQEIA
The experiment is described as follows: flow cytometry, transiently transfected HEK cells, MFI as % of IgG1-B7H3-BRCA84D. As to the method: as §4, §5

The Kd is the free concentration of one partner at which half of the binding sites on the other are occupied at equilibrium, for simple one-to-one binding. A low value points to higher affinity. Usually koff stands for a measure of how fast the partners let go of each other. A low value points to slow dissociation. One may read the kon as a measure of how fast the partners come together. Low values mean slow association, high ones fast association.

B1: IgG1-B7H4-C2-FEAR (antibody, V domains shown)
VH: EVQLVQSGAEVKKPGASVKVSCKASGYTFTSYWIGWVRQAPGQGLEWIGDIYPGGGYTNYNEKFKGRVTITRDTSTSTAYLELSSLRSEDTAVYYCARLDGSSYRGAMDSWGQGTLVTVSS
VL: DIQMTQSPSSLSASVGDRVTITCKASQGFNKYVAWYQQKPGKAPKLLIYYTSTLQPGVPSRFSGSGSGRDYTLTISSLQPEDFATYYCLQYGNLLYAFGQGTKVEIKR
notes: Full length IgG1 FEAR, kappa; variable domains from WO2014159835
Consider B1, for which the Kd worked out at 24 nM in experiment [1] and 2.1 nM in experiment [3]. For the same molecule, the koff in experiment [1] came out at 0.00077 s⁻¹; in experiment [3], 0.00013 s⁻¹. Also, the kon is 33000 M⁻¹ s⁻¹ in experiment [1] and 63000 M⁻¹ s⁻¹ in experiment [3]. The binding result in experiment [2], in experiment [4] and in experiment [5] was “binds” throughout.

B2: bsIgG1-huCD3-FEALxB7H4-C3-FEAR (bispecific antibody)
heavy 1: not shown
light 1: not shown
heavy 2: EVQLVQSGAEVKKPGASVKVSCKASGYTFTNFWIHWVRQAPGQGLEWIGEIDPSDSYTNYNQKFKGRVTITRDTSTSTAYLELSSLRSEDTAVYYCAREITTVDYWGQGTLVTVSSASTKGPSVFPLAPSSKSTSGGTAALGCLVKDYFPEPVTVSWNSGALTSGVHTFPAVLQSSGLYSLSSVVTVPSSSLGTQTYICNVNHKPSNTKVDKRVEPKSCDKTHTCPPCPAPEFEGGPSVFLFPPKPKDTLMISRTPEVTCVVVAVSHEDPEVKFNWYVDGVEVHNAKTKPREEQYNSTYRVVSVLTVLHQDWLNGKEYKCKVSNKALPAPIEKTISKAKGQPREPQVYTLPPSREEMTKNQVSLTCLVKGFYPSDIAVEWESNGQPENNYKTTPPVLDSDGSFFLYSRLTVDKSRWQQGNVFSCSVMHEALHNHYTQKSLSLSPGK
light 2: DIQMTQSPSSLSASVGDRVTITCSATSSISYMHWYQQKPGKAPKGWIYDTSKLAHGVPSRFSGSGSGTDFTLTISSLQPEDFATYYCHQRRSYPFTFGQGTKVEIKRTVAAPSVFIFPPSDEQLKSGTASVVCLLNNFYPREAKVQWKVDNALQSGNSQESVTEQDSKDSTYSLSSTLTLSKADYEKHKVYACEVTHQGLSSPVTKSFNRGEC
notes: also called bslgG1-huCD3-FEALxB7H4-C3-FEAR
Regarding B2, the binding result in experiment [6] was “binds”; in experiment [7], “no binding (tested: 10 µg/mL)”.
